Reference: patent US20220411519A1 (SHANGHAI NOVAMAB BIOPHARMACEUTICALS, published 2022)

T1: mouse IL-4R (mouse, UniProt P16382 26-233, limits assumed)
T1 sequence (looked up): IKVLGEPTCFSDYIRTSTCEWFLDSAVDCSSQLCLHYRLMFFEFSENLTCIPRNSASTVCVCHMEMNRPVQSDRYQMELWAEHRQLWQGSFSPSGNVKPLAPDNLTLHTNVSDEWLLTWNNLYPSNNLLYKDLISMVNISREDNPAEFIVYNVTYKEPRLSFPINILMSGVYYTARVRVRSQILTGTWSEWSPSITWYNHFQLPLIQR


How the values were obtained:
[1] = molecular target: T2, human IL-4R on cells (293F/IL-4R cells; HEK293F cells with high IL-4Rα expression) (human, UniProt P24394 26-825); test: cell-based or functional assay
[2] = molecular target: T2, human IL-4R on cells (293F/IL-4R cells; …); test: flow cytometry on HEK293F cells with high IL-4Rα expression, anti-human Fc-FITC
Procedure: (1) HEK293F cells with high IL-4Rα expression were collected, centrifuged at 1000 rpm for 5 min, and the supernatant was discarded. The cells were re-suspended with 5 mL PBS and centrifuged at 1000 rpm for 5 min, and the supernatant was discarded. Then the cells were re-suspended with 2 mL PBS, and counted. The cells were divided into 96-well plates with 3×10⁵ cells per well; (2) Humanized antibody huNb103 (amino acid sequence refers to SEQ ID NO:16) and Dupilumab were diluted by 2-fold gradient dilution (40 ug/mL, 20 ug/mL, 10 ug/mL, 5 ug/mL, 2.5 ug/mL, 1.25 ug/mL, 0.625 ug/mL, 0.313 ug/mL, 0.156 ug/mL, 0.078 ug/mL). The cells in the 96-well plate were resuspended with the diluted antibody and incubated at 4° C. for 20 min. (3) Centrifugation was performed at 3000 rpm at 4° C. for 4 min, and 200 ul PBS was added to each well. After resuspension, centrifugation was performed at 3000 rpm at 4° C. for 4 min. (4) Diluted anti-human Fc-FITC antibody (diluted at 1:200) was added and incubated at 4° C. for 20 min. (5) Centrifugation was performed at 3000 rpm at 4° C. for 4 min, and the supernatant was discarded, 200 uL PBS was added into each well to wash cells for two times, then 200 uL PBS was added to re-suspend the cells. The cells were transferred to flow tube to detect FITC signal of each sample via flow cytometry.

[3] = molecular target: T2, human IL-4R on cells (293F/IL-4R cells; …); test: flow cytometry blocking of IL-4/IL-4R on HEK293F cells with high IL-4Rα expression, SA-PE
Procedure: (1) HEK293F cells with high IL-4Rα expression were collected, centrifuged at 1000 rpm for 5 min, and the supernatant was discarded. The cells were re-suspended with 5 mL PBS and centrifuged at 1000 rpm for 5 min, and the supernatant was discarded. Then the cells were re-suspended with 2 mL PBS, and counted. The cells were divided into 96-well plates with 3×10⁵ cells per well. (2) Humanized antibody huNb103 (amino acid sequence refers to SEQ ID NO:16) and Dupilumab were diluted by 2-fold gradient dilution (40 ug/mL, 20 ug/mL, 10 ug/mL, 5 ug/mL, 2.5 ug/mL, 1.25 ug/mL, 0.625 ug/mL, 0.313 ug/mL, 0.156 ug/mL, 0.078 ug/mL). The cells in the 96-well plate were resuspended with the diluted antibody and incubated at 4° C. for 20 min. (3) Centrifugation was performed at 3000 rpm at 4° C. for 4 min, and 200 ul PBS was added to each well. After resuspension, centrifugation was performed at 3000 rpm at 4° C. for 4 min. (4) Diluted SA-PE staining solution (diluted at 0.3:100) was added and incubated at 4° C. for 20 min. (5) Centrifugation was performed at 3000 rpm at 4° C. for 4 min, and the supernatant was discarded, 200 uL PBS was added into each well to wash cells for two times, then 200 uL PBS was added again to re-suspend the cells. The cells were transferred to flow tube to detect PE signal of each sample via flow cytometry.

rhesus monkeys IL-4R = rhesus monkeys IL-4R (rhesus monkey, UniProt F6RUR0 26-232); test: ELISA, coated IL-4R, same method as for FIG. 6
Procedure: (§1) ELISA was used to verify whether the candidate antibody could cross-react with IL-4R proteins of different species, and the method was as follows: (1) 1 ug/mL human IL-4R, mouse IL-4R and cynomolgus monkey IL-4R were added into the plate and coated overnight at 4° C. with 100 uL/well. (2) After washing with PBST for 5 times, 300 uL 1% BSA was added to each well and sealed for 2 hours at room temperature. (3) After washing with PBST for 5 times, 100 uL of 2 ug/mL antibody to be tested was added and incubated at 37° C. for 1 hour. (4) After washing with PBST for 5 times, 100 uL diluted anti-HA antibody (diluted at 1:2000) was added and incubated at 37° C. for 1 hour. (4) After washing with PBST for 5 times, 100 uL diluted anti-mouse IgG antibody (diluted at 1:2000) was added and incubated at 37° C. for 30 minutes. (5) After washing with PBST for 5 times, 100 uL PA chromogenic solution was added and developing at 37° C. for 10 minutes, and the absorption value was measured at 405 nm wavelength with a microplate reader. The results are shown in FIG. 6, the candidate antibody Nb103 can recognize the human IL-4R, but not mouse and cynomolgus monkey IL-4R.
ELISA was used again to verify whether the candidate antibody could cross-react with IL-4R protein of different monkey types. The detection method was the same as above. […]

[4] = molecular target: T2, human IL-4R on cells (293F/IL-4R cells; …); test: flow cytometry competition: antibody titrated against 5 ug/mL IL-4-biotin on 293F/IL-4R cells, SA-PE
Procedure: (1) A certain number of 293F/IL-4R cells that were transitioned for 48 h were centrifuged at 1000 rpm for 5 min, the supernatant was discarded, the cells were re-suspended and washed with PBS for once, and counted. The cells were divided into 96-well plates at 100 ul/well, and then centrifuged at 3000 rpm at 4° C. for 4 min. (2) The supernatant was aspirated, and the single-domain antibody with different sequences in gradient diluted in example 1 was added (two-fold gradient dilution starting from 40 ug/mL). 50 uL was added to each well, and then 50 uL of 5 ug/mL IL-4-biotin was added to mix, and incubated at 4° C. for 20 min. (3) Centrifugation was performed at 3000 rpm at 4° C. for 4 min, and the supernatant was discarded. 200 uL PBS was added to each well to wash the cells, and the supernatant was discarded by centrifugation again. Diluted SA-PE staining solution was added and incubated at 4° C. for 20 min. (4) Centrifugation was performed at 3000 rpm at 4° C. for 4 min, and the supernatant was discarded. 200 uL PBS was added to each well to wash the cells, and the supernatant was discarded by centrifugation again. 200 uL PBS was added to re-suspend the cells, and the PE signal of the samples was detected by flow cytometry.

mouse IL-4R = molecular target: T1, mouse IL-4R; test: ELISA, IL-4R coated at 1 ug/mL, anti-HA detection
Procedure: as §1

cynomolgus monkey IL-4R = cynomolgus monkey IL-4R (cynomolgus monkey, UniProt A0A2K5V580 33-239); test: ELISA, IL-4R coated at 1 ug/mL, anti-HA detection
Procedure: as §1

Row | Binder | inhibition of TF-1 cell proliferation induced by IL-4 (CCK8, OD450) [1] | inhibition of TF-1 cell proliferation induced by IL-13 (CCK8, OD450) [1] | EC50 [2] | IC50 [3] | binding result (rhesus monkeys IL-4R) | IC50 [4] | binding result (mouse IL-4R) | binding result (cynomolgus monkey IL-4R)
1 | humanized tetravalent antibody tet-huNb103 (Fc fusion) EVQLVESGGGLVQPGGSLRLSCAASGSTSYRYCMAWFRQAPGKGLEAVASIRPRSGRAYYADSVKGRFTISRDNSKNTLYLQMNSLRAEDTAVYYCAASDNDGNCQDYWGKGTLVTVSSGGGGSGGGSEVQLVESGGGLVQPGGSLRLSCAASGSTSYRYCMAWFRQAPGKGLEAVASIRPRSGRAYYADSVKGRFTISRDNSKNTLYLQMNSLRAEDTAVYYCAASDNDGNCQDYWGKGTLVTVSSESKYGPPCPPCPAPEFLGGPSVFLFPPKPKDTLMISRTPEVTCVVVDVSQEDPEVQFNWYVDGVEVHNAKTKPREEQFNSTYRVVSVLTVLHQDWLNGKEYKCKVSNKGLPSSIEKTISKAKGQPREPQVYTLPPSEEMTKNQVSLTCLVKGFYPSDIAVEWESNGQPENNYKTTPPVLDSDGSFFLYSRLTVDKSRWQEGNVFSCSVMHEALHNHYTQKSLSLSLG | 0.02 µg/mL | 0.026 µg/mL |  |  |  |  |  | 
2 | humanized antibody huNb103 (humanized single-domain antibody fused with Fc) (Fc fusion, called bivalent, so two chains; expressed in HEK293F; also called humanized bivalent antibody; human bivalent antibody) EVQLVESGGGLVQPGGSLRLSCAASGSTSYRYCMAWFRQAPGKGLEAVASIRPRSGRAYYADSVKGRFTISRDNSKNTLYLQMNSLRAEDTAVYYCAASDNDGNCQDYWGKGTLVTVSSESKYGPPCPPCPAPEFLGGPSVFLFPPKPKDTLMISRTPEVTCVVVDVSQEDPEVQFNWYVDGVEVHNAKTKPREEQFNSTYRVVSVLTVLHQDWLNGKEYKCKVSNKGLPSSIEKTISKAKGQPREPQVYTLPPSEEMTKNQVSLTCLVKGFYPSDIAVEWESNGQPENNYKTTPPVLDSDGSFFLYSRLTVDKSRWQEGNVFSCSVMHEALHNHYTQKSLSLSLG | 0.032 µg/mL | 0.059 µg/mL | 0.286 µg/mL | 0.474 µg/mL |  |  |  | 
3 | IL-4R single-domain antibody Nb103 (VHH, also called candidate single-domain antibody Nb103; IL-4Ra Nb103 antibody; not shown: tag(s) from the pMECS phage vector) VHH: QVQLQESGGGSVQAGGSLRVSCAASGSTSYRYCMAWFRQAPGKEREAVASIRPRSGRAYYADSVKGRFTISLDNAKNTLYLQMNSLKPEDTAMYYCAASDNDGNCQDYWGKGTQVTVSS | 0.149 µg/mL | 0.066 µg/mL |  |  | no binding | 0.274 µg/mL | no binding (tested: 2 ug/mL antibody) | no binding (tested: 2 ug/mL antibody)
4 | Dupilumab (antibody, V domains shown) VH: EVQLVESGGGLEQPGGSLRLSCAGSGFTFRDYAMTWVRQAPGKGLEWVSSISGSGGNTYYADSVKGRFTISRDNSKNTLYLQMNSLRAEDTAVYYCAKDRLSITIRPRYYGLDVWGQGTTVTVSS VL: DIVMTQSPLSLPVTPGEPASISCRSSQSLLYSIGYNYLDWYLQKSGQSPQLLIYLGSNRASGVPDRFSGSGSGTDFTLKISRVEAEDVGFYYCMQALQTPYTFGQGTKLEIKR |  |  | 0.36 µg/mL | 1.13 µg/mL |  | 0.511 µg/mL |  | 
